These results are taken from article doi:10.1101/2021.03.31.438001.

The test deals with Pr17 (OAD22177.1), secreted protein of Candidatus Thiomargarita nelsonii (Candidatus Thiomargarita nelsonii). Nature of the test: non-reducing SDS-PAGE.

For the substance “Pr17 (OAD22177.1), secreted protein of Candidatus Thiomargarita nelsonii (natural protein)”, the stoichiometry N turned out to be 2.
